Consider one molecule from paper PMC2440032, “Odorranalectin Is a Small Peptide Lectin with Potential for Drug Delivery and Targeting” (PLoS ONE, 2008).

The target in test [1] is T1, fetuin (UniProt P12763 19-359).
T1 sequence (looked up): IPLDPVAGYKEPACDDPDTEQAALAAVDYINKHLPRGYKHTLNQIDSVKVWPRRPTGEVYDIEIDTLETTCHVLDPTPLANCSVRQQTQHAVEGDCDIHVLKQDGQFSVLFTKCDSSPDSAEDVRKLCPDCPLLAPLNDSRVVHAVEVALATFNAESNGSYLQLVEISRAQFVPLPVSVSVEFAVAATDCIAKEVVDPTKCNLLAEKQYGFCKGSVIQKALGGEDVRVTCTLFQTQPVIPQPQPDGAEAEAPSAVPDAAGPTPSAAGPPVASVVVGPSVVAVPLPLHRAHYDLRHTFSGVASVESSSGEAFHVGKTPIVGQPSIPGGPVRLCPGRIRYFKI
Nature of the test: SPR; Biacore 3000; odorranalectin immobilised on sensor chip CM-5 by amine coupling, glycoproteins as analytes diluted in HBS-EP (10 mM HEPES-buffered saline, 3 mM EDTA, 0.005% surfactant P-20, pH 7.4); 1:1 binding model; KD calculated from ka and kd. As to conditions: both partners purified.

For test [2], the target named is Bovine submaxillary mucin (bovine, heavily O-glycosylated (sialylated) mucin preparation; the polypeptide is not given, and the main bovine submaxillary mucin (MUC19) is assumed with limits from the CHAIN feature; the pre). The test is described as above. As to conditions: both partners purified.

B1: odorranalectin (peptide)
peptide: YASPKCFRYPNGVLACT
notes: odorranalectin, mature 17-residue peptide at the C-terminus of the 61-residue precursor, Odorrana grahami; follows the di-basic site K42R43 of the precursor; One intramolecular disulfide bond Cys6-Cys16; Immobilised on a CM-5 chip by amine coupling; Details of purification and synthesis are in Materials and Methods S1; also called lectin-like peptide; source: purified from O. grahami skin …
The Kd is the constant that tells how readily two partners part at equilibrium. Regarding B1, the Kd in test [1] is 211 nM; in test [2], 2900 nM.
